Values of other authors in patent US10870689B2, “ApoM-Fc fusion proteins, complexes thereof with sphingosine 1-phosphate (S1P), and methods for treating vascular and non-vascular diseases” (Children's Medical Center Corporation, priority 2016, dated 2020).

Experiments:
[1] = Sevvana et al. 2010; read-out: relative affinity for S1P
[2] = not associated with HDL; Faber et al. 2006

Row | Kd [1] [nM] | Molecule | in vivo half-life [2]
1 | ~1000 | recombinant ApoM: Bacterially expressed recombinant human ApoM (protein, UniProt O95445 1-188, looked up) Apolipoprotein M: MFHQIWAALLYFYGIILNSIYQCPEHSQLTTLGVDGKEFPEVHLGQWYFIAGAAPTKEELATFDPVDNIVFNMAAGSAPMQLHLRATIRMKDGLCVPRKWIYHLTEGSTDLRTEGRPDMKTELFSSSCPGGIMLNETGQGYQRFLLYNRSPHPPEKCVEEFKSLTSCLDSKAFLLTPRNQEACELSNN | –
2 | – | Free ApoM: ApoM that is not associated with HDL (protein, UniProt O95445 1-188, looked up) Apolipoprotein M: MFHQIWAALLYFYGIILNSIYQCPEHSQLTTLGVDGKEFPEVHLGQWYFIAGAAPTKEELATFDPVDNIVFNMAAGSAPMQLHLRATIRMKDGLCVPRKWIYHLTEGSTDLRTEGRPDMKTELFSSSCPGGIMLNETGQGYQRFLLYNRSPHPPEKCVEEFKSLTSCLDSKAFLLTPRNQEACELSNN | less than 15 minutes
